# Where no end group is shown, it is not given here. The star is where a group is joined. For = O=C*
# T1: FLAG-tagged human FPR1 (Hs_FPR1) (human, UniProt P21462 1-350)
# T1 sequence (looked up): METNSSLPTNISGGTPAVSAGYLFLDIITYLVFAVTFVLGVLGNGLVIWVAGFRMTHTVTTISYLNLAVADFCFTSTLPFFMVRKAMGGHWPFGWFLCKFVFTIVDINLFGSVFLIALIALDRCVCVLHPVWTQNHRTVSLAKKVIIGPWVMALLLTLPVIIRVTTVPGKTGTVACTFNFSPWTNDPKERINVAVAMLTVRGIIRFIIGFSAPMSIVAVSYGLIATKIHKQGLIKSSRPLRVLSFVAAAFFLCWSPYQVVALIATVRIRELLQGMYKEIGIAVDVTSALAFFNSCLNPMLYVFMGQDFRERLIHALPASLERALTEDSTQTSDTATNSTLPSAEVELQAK
# T2: FLAG-tagged human FPR2 (Hs_FPR2) (human, UniProt P25090 1-351)
# T2 sequence (looked up): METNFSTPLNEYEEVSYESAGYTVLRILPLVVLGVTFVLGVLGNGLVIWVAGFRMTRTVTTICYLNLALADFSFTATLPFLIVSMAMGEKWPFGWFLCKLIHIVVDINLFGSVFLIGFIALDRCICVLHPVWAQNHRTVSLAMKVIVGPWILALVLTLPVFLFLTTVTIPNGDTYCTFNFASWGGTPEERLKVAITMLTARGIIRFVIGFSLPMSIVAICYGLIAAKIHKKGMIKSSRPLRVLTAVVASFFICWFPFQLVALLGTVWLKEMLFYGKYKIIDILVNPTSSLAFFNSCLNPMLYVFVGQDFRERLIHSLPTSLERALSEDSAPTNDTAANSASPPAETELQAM
# T3: FLAG-tagged mouse Fpr1 (Mm_Fpr1) (mouse, UniProt P33766 1-364)
# T3 sequence (looked up): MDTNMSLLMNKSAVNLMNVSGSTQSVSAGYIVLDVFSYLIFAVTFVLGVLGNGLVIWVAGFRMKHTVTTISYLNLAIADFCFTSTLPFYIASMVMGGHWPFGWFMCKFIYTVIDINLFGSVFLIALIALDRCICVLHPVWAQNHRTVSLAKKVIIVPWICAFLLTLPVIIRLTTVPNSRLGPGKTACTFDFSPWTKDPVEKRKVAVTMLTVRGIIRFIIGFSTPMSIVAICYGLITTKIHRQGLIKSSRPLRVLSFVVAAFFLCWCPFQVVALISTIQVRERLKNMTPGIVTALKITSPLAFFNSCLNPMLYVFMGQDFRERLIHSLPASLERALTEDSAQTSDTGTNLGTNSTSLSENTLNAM
# T4: FLAG-tagged mouse Fpr2 (Mm_Fpr2) (mouse, UniProt O88536 1-351)
# T4 sequence (looked up): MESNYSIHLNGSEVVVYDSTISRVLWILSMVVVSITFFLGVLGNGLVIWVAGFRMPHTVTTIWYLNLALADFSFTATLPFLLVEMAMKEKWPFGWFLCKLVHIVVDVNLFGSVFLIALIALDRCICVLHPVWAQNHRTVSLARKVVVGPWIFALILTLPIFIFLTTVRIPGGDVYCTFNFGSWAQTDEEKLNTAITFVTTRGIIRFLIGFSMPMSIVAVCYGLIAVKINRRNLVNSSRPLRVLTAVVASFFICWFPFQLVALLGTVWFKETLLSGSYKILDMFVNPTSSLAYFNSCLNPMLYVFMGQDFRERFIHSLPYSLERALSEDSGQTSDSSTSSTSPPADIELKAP
# T5: FLAG-Hs_FPR2 C-terminally fused to Renilla Luciferase 8 (human, UniProt P25090 1-351)
# T5 sequence (looked up): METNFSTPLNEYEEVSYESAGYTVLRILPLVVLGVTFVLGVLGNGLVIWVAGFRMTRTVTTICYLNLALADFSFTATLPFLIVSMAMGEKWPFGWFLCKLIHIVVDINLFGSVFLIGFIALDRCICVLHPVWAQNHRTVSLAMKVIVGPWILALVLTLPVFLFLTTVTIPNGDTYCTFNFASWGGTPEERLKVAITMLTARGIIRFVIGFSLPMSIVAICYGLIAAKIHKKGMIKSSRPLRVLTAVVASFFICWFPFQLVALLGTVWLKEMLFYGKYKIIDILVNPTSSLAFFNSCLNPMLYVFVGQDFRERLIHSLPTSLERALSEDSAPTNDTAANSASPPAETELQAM
# T6: FLAG-Mm_Fpr2 C-terminally fused to Renilla Luciferase 8 (mouse, UniProt O88536 1-351)
# T6 sequence (looked up): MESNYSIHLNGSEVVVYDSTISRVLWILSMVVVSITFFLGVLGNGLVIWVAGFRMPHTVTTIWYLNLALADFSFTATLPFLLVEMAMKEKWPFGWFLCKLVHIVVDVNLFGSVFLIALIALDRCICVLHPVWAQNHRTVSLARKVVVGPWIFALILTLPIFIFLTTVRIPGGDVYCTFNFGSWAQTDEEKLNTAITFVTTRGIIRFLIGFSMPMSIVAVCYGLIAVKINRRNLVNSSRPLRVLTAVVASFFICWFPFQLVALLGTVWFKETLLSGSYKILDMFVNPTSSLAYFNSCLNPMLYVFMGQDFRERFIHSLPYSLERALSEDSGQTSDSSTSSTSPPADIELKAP
# T7: FLAG-Hs_FPR1 C-terminally fused to Renilla Luciferase 8 (human, UniProt P21462 1-350)
# T7 sequence (looked up): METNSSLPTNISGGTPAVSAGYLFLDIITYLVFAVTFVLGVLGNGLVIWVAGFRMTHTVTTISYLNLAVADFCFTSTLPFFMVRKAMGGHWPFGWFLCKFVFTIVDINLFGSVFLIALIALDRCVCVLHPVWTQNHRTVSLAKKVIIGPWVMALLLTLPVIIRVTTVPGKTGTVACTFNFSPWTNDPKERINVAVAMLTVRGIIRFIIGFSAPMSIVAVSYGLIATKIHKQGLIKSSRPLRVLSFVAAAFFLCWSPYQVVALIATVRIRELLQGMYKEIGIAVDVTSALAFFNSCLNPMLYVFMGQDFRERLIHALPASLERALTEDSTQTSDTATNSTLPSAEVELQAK
# T8: FLAG-Mm_Fpr1 C-terminally fused to Renilla Luciferase 8 (mouse, UniProt P33766 1-364)
# T8 sequence (looked up): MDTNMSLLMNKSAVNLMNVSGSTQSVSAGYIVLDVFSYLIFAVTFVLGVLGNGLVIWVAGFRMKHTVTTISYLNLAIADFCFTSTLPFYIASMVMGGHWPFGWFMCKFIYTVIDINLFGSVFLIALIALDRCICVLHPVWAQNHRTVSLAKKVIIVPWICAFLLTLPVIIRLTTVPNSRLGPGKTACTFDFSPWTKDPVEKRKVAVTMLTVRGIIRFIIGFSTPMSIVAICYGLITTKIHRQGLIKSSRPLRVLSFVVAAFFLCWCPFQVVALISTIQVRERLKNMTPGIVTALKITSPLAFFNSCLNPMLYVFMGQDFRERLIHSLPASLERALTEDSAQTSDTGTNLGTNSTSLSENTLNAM
# What was measured:
# [1] = molecular target: T1, FLAG-tagged human FPR1 (Hs_FPR1); experiment: flow cytometry on cells; competition binding: HEK293 cells stably expressing the receptor, lifted in PBS, on ice 90 min with 10 nM K(5/6-FAM)-WKYMVm and increasing unlabeled ligand; mean fluorescence of 5000 cells as % of that without competitor; One site-Fit logIC50
# [2] = molecular target: T1, FLAG-tagged human FPR1 (Hs_FPR1)
# [3] = molecular target: T2, FLAG-tagged human FPR2 (Hs_FPR2)
# [4] = molecular target: T3, FLAG-tagged mouse Fpr1 (Mm_Fpr1)
# [5] = molecular target: T1, FLAG-tagged human FPR1 (Hs_FPR1); remark: listed apart in the source
# [6] = molecular target: T2, FLAG-tagged human FPR2 (Hs_FPR2); remark: listed apart in the source
# [7] = molecular target: T4, FLAG-tagged mouse Fpr2 (Mm_Fpr2)
# [8] = molecular target: T3, FLAG-tagged mouse Fpr1 (Mm_Fpr1); remark: listed apart in the source
# [9] = molecular target: T5, FLAG-Hs_FPR2 C-terminally fused to …; experiment: cell-based or functional assay
# [10] = molecular target: T6, FLAG-Mm_Fpr2 C-terminally fused to …; experiment: cell-based or functional assay
# [11] = molecular target: T7, FLAG-Hs_FPR1 C-terminally fused to …; experiment: cell-based or functional assay
# [12] = molecular target: T8, FLAG-Mm_Fpr1 C-terminally fused to …; experiment: cell-based or functional assay
# [13] = molecular target: T5, FLAG-Hs_FPR2 C-terminally fused to …; experiment: cell-based or functional assay; remark: listed apart in the source
# [14] = molecular target: T6, FLAG-Mm_Fpr2 C-terminally fused to …; experiment: cell-based or functional assay; remark: listed apart in the source
# [15] = molecular target: T7, FLAG-Hs_FPR1 C-terminally fused to …; experiment: cell-based or functional assay; remark: listed apart in the source
# [16] = molecular target: T8, FLAG-Mm_Fpr1 C-terminally fused to …; experiment: cell-based or functional assay; remark: listed apart in the source
# [17] = molecular target: T4, FLAG-tagged mouse Fpr2 (Mm_Fpr2); remark: listed apart in the source
Molecule,Log IC50 [1],Max Comp (%) [1],ERK1/2 phosphorylation (Western blot): Emax (% of 1 μM WKYMVm) [2],ERK1/2 phosphorylation (Western blot): Log EC50 (M) [2],ERK1/2 phosphorylation (Western blot): Emax (% of 1 μM WKYMVm) [3],ERK1/2 phosphorylation (Western blot): Log EC50 (M) [3],ERK1/2 phosphorylation (Western blot): Emax (% of 1 μM WKYMVm) [4],ERK1/2 phosphorylation (Western blot): Log EC50 (M) [4],receptor internalization (flow cytometry): Emax (% of 1 μM WKYMVm) [5],receptor internalization (flow cytometry): Log EC50 (M) [5],receptor internalization (flow cytometry): Emax (% of 1 μM WKYMVm) [6],receptor internalization (flow cytometry): Log EC50 (M) [6],receptor internalization (flow cytometry): Emax (% of 1 μM WKYMVm) [7],receptor internalization (flow cytometry): Log EC50 (M) [7],receptor internalization (flow cytometry): Emax (% of 1 μM WKYMVm) [8],receptor internalization (flow cytometry): Log EC50 (M) [8],other results
fMet-Leu-Phe (fMLF) (peptide),-6.19 log M,88%,143%,-8.91 log M,40.2%,-4.82 log M,72.7%,-5.64 log M,92.1%,-7.38 log M,0.343%,-8.95 log M,54.4%,-3.8 log M,92.5%,-5.35 log M,
For-MLFK [fMet-Leu-Phe-Lys (fMLFK)],-6.23 log M,63.3%,112%,-8.16 log M,74.3%,-5.88 log M,140%,-6.07 log M,79.3%,-7.79 log M,99.9%,-4.48 log M,81.6%,-4.94 log M,179%,-5.21 log M,BRET of receptor-RLuc8 with Arrestin 3-YFP: Emax (% of 1 μM WKYMVm) [9]: 92.7%; BRET of receptor-RLuc8 with Arrestin 3-YFP: Log EC50 (M) [9]: -4.44 log M; BRET of receptor-RLuc8 with Arrestin 3-YFP: Emax (% of 1 μM WKYMVm) [10]: 72.5%; BRET of receptor-RLuc8 with Arrestin 3-YFP: Log EC50 (M) [10]: -4.79 log M; BRET of receptor-RLuc8 with Arrestin 3-YFP: Emax (% of 1 μM WKYMVm) [11]: 97.4%; BRET of receptor-RLuc8 with Arrestin 3-YFP: Log EC50 (M) [11]: -7.45 log M; BRET of receptor-RLuc8 with Arrestin 3-YFP: Emax (% of 1 μM WKYMVm) [12]: 95.2%; BRET of receptor-RLuc8 with Arrestin 3-YFP: Log EC50 (M) [12]: -5.14 log M; BRET of receptor-RLuc8 with Venus-mGsi: Emax (% of 1 μM WKYMVm) [13]: 80.7%; BRET of receptor-RLuc8 with Venus-mGsi: Log EC50 (M) [13]: -4.57 log M; BRET of receptor-RLuc8 with Venus-mGsi: Emax (% of 1 μM WKYMVm) [14]: 82.7%; BRET of receptor-RLuc8 with Venus-mGsi: Log EC50 (M) [14]: -4.52 log M; BRET of receptor-RLuc8 with Venus-mGsi: Emax (% of 1 μM WKYMVm) [15]: 104%; BRET of receptor-RLuc8 with Venus-mGsi: Log EC50 (M) [15]: -7.07 log M; BRET of receptor-RLuc8 with Venus-mGsi: Emax (% of 1 μM WKYMVm) [16]: 62.9%; BRET of receptor-RLuc8 with Venus-mGsi: Log EC50 (M) [16]: -5.02 log M; ERK1/2 phosphorylation (Western blot): Emax (% of 1 μM WKYMVm) [17]: 176%; ERK1/2 phosphorylation (Western blot): Log EC50 (M) [17]: -5.91 log M

# From publication PMC12881670, “Investigation into ligand selectivity and bias at the formyl peptide receptor family” (The Journal of Pharmacology and Experimental Therapeutics, 2025)
